From patent US20230051715A1 (MABWELL THERAPEUTICS, published 2023)

Experiments:
[1] = biological target: T1, full-length human C1s (produced in house) (human, UniProt P09871 16-688); assay: BLI (Octet RED96e), antibody on AHC biosensor; C1s Species: Human; R^2 0.9999
T1 construct: Called full-length; Partly auto-cleaved at R422-I423 on blots; also called HuC1s; Hu C1s
T1 sequence: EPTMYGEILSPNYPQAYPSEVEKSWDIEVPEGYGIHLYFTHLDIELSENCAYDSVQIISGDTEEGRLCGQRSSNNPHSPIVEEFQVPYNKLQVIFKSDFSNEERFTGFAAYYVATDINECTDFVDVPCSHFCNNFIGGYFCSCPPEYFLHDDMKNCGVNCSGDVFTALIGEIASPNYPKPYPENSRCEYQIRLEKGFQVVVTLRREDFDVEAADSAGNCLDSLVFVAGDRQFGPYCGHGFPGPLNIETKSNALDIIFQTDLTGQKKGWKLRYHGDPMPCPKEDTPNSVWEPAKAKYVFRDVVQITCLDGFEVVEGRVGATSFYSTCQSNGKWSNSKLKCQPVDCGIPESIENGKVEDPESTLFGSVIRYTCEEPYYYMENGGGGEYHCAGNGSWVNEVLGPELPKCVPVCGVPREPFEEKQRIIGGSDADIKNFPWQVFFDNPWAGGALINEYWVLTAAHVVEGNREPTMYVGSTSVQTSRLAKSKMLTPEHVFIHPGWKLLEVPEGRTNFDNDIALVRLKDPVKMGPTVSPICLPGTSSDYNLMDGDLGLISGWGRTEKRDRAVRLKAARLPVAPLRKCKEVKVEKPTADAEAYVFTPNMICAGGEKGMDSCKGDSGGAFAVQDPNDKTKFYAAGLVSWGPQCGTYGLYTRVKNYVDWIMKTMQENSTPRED
Excerpt: (§1) At last, analyte was dissociated in 1×KB for 360 sec. Data analysis was done using OCTET® Data Analysis HT Software (Sartorius AG).

[2] = biological target: T2, cynomolgus monkey C1s (produced in house) (cynomolgus monkey, UniProt P09871 16-685 (human entry), limits assumed); assay: BLI (Octet RED96e), antibody on AHC biosensor; C1s Species: Cyno Monkey; R^2 0.9996
T2 construct: also called CyC1s
T2 chain: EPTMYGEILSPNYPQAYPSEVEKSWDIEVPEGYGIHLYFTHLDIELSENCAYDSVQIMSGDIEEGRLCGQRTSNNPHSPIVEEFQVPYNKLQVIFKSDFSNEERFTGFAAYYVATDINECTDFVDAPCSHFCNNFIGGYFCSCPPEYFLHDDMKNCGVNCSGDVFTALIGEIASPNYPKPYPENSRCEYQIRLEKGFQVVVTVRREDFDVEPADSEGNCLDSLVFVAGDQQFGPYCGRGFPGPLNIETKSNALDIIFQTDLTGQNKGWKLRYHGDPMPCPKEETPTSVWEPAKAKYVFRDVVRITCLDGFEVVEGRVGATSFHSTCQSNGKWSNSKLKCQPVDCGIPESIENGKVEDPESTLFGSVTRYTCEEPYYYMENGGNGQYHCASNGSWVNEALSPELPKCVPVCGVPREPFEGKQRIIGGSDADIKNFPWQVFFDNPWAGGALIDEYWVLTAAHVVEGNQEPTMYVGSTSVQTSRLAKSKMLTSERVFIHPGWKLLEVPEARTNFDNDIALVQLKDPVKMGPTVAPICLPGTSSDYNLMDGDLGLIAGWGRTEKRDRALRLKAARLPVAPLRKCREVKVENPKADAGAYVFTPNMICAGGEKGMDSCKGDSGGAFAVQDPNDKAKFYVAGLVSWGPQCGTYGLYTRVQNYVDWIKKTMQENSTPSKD
Excerpt: as §1

[3] = biological target: T2, cynomolgus monkey C1s (produced in …); assay: BLI (Octet RED96e), antibody on AHC biosensor; C1s Species: Cyno Monkey; R^2 0.9999
Excerpt: as §1

[4] = biological target: T3, human C1s deletion mutant 3 (NHCΔ33) (human, UniProt P09871 16-404); assay: ELISA, C1s fragment coated on plate; hz2-8(H1L2 G80A), first of the two values
T3 construct: C-terminal 6xHis tag; also called human C1s (NHCΔ33); C1s (NHCΔ33)
T3 sequence: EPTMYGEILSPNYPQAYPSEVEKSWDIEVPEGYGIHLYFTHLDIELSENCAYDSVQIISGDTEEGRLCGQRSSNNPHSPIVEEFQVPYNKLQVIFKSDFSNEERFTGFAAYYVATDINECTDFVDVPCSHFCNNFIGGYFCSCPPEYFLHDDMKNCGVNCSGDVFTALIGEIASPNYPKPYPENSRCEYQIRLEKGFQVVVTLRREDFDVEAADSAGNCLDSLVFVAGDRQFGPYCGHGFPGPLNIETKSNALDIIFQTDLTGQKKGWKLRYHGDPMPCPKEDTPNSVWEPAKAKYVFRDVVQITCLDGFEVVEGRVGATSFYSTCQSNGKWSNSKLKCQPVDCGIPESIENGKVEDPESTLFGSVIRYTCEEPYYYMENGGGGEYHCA
Description: (§2) ELISA was carried out by first coating 96-well plates with 200 ng/well of full-length or truncated C1s proteins overnight. The next morning, plates were blocked with SuperBlock T20 blocking buffer (Thermo Scientific 37536) for 1 h with gentle shaking. Then, various concentrations of anti-C1s antibodies diluted in SuperBlock T20 blocking buffer were added to the plates and incubated for 1 h with gentle shaking. Mouse IgG (Sigma-Aldrich 15381) and human IgG1 (BioXCell BP0297) were used as negative controls. The plates were washed before incubating with HRP conjugated secondary antibodies diluted in SuperBlock T20 blocking buffer (goat anti-mouse IgG (H+L) cross-adsorbed secondary antibody HRP (Invitrogen G-21040) or goat anti-human IgG antibody, HRP conjugate (Millipore AP309P)) for 1 h with gentle shaking. At last, the plates were washed and color developed with ELISA liquid HRP substrate (Sigma-Aldrich), followed by stopping the reaction with addition of 1M H₂SO₄ in the same volume as the ELISA liquid substrate. Bound antibody was measured by absorbance at OD₄₅₀ₙₘ.
(§3) Binding of various anti-C1s antibodies to human C1s (NHCΔ33) (SEQ ID NO: 111) was carried out by ELISA as described in Example 4, and results are shown in FIG. 6A.

[5] = biological target: T3, human C1s deletion mutant 3 (NHCΔ33); assay: ELISA, C1s fragment coated on plate; hz2-8(H1L2 G80A/T82A), second of the two values
Description: as §2, §3

B1: Anti-C1s antibody hz2-7(H1L2) (antibody, V domains shown)
VH: EVQLLESGGGLVQPGGSLRLSCAASGFTFSNYFMNWVRQAPGKGLEWVSEIRLKFTNYATHYADSVKGRFTISRDDSKSTLYLQMNSLRAEDTAVYYCTRDYGSRNGYFDYWGQGTLVTVSS
VL: DIVMTQTPLSLPVTPGEPASISCRSSKSLLHSNGNTFLYWFLQKPGQSPQLLIYRMSNLASGVPDRFSGSGSGTDFTLKISRVEAEDVGVYYCMQHLEYPYTFGGGTKLEIKR
notes: Humanized, human IgG1 / kappa; also called hz2-7(1L2)
Kd [1]: 0.12 nM | koff [1]: 4.6e-05 s⁻¹ | kon [1]: 390000 M⁻¹ s⁻¹

B2: Anti-C1s antibody 2-8 (antibody, V domains shown)
VH: EVQLQQSGAELVRPGALVKLSCKASGFNIKEYYMHWVKQRPEQGLEWIGWIDPENGDTIYDPKFQGKASITADTSSNTAYLQLSSLTSEDTAVYYCARSRLFFAYWGQGTLVTVSA
VL: DIVMTQSHKFMSTSVGDRVSFTCKASQDVRTAVDWYQQKPGQSPKLLIYSASYRYTGVPDRFTGTGSGTDFTFTISSVQAEDLAVYFCQQQYTTPYTFGGGTKLEIKT
notes: the HC/LC entries may hold it too; also called clone 2-8
Kd [2]: 1.1 nM | koff [2]: 0.00028 s⁻¹ | kon [2]: 260000 M⁻¹ s⁻¹

B3: Anti-C1s antibody 2-7 (antibody, human IgG1, kappa, V domains shown)
VH: EVKLEESGGGLVPPGGSMKLSCVASGFTFSNYFMNWVRQSPEKGLEWVAEIRLKFTNYATHYAESVEGRFTISRDDSKSSVYLQMNNLRAEDTGIYYCTRDYGSRNGYFDYWGQGTTLTVSS
VL: DIVMTQAAPSVPVTPGESVSISCRSSKSLLHSNGNTFLYWFLQRPGQSPQLLIYRMSNLASGVPDRFSGSGSGTAFTLRVSRVEAEDVGIYYCMQHLEYPYTFGGGTKLEIKT
notes: the HC/LC entries may hold it too; also called clone 2-7
Kd [3]: 0.23 nM | koff [3]: 6.5e-05 s⁻¹ | kon [3]: 280000 M⁻¹ s⁻¹

B4: Anti-C1s antibody hz2-8 (H1L2 G80A) (antibody, V domains shown)
VH: QVQLVQSGAEVKKPGASVKVSCKASGFNIKEYYMHWVRQAPEQGLEWMGWIDPENADTIYAQKFQGRVTITADTSTNTAYMELSSLRSEDTAVYYCARSRLFFAYWGQGTLVTVSS
VL: DIQMTQSPKSLSASVGDRVTITCRASQDVRTALDWYQQKPGQSPKLLIYSASYRYSGVPSRFSGSGSGTDFTLTISSLQPEDFATYYCQQQYTTPYTFGQGTKLEIKR
notes: Humanized variant with G80A in HC CDR2 (already in the entry), human IgG1 / kappa
EC50 [4]: 0.008 µg/mL

B5: Anti-C1s antibody hz2-8 (H1L2 G80A/T82A) (antibody, V domains shown)
VH: QVQLVQSGAEVKKPGASVKVSCKASGFNIKEYYMHWVRQAPEQGLEWMGWIDPENADAIYAQKFQGRVTITADTSTNTAYMELSSLRSEDTAVYYCARSRLFFAYWGQGTLVTVSS
VL: DIQMTQSPKSLSASVGDRVTITCRASQDVRTALDWYQQKPGQSPKLLIYSASYRYSGVPSRFSGSGSGTDFTLTISSLQPEDFATYYCQQQYTTPYTFGQGTKLEIKR
notes: Humanized variant with G80A and T82A in HC CDR2 (already in the entry), human IgG1 / kappa
EC50 [5]: 0.015 µg/mL
